Results from article PMC11253607, “A conserved inhibitory interdomain interaction regulates DNA-binding activities of hybrid two-component systems in Bacteroides” (mBio, 2024).
Positions count from the first letter of the chain named.

Columns and labels:
[1] = target: T1, BT4663-RRAD C1174A;H1175D (Bacteroides thetaiotaomicron VPI 5482) (UniProt Q89YR8); test: EMSA; details: 50 mM Tris pH 7.6, 200 mM NaCl, 2.5% glycerol, 2 mM MgCl2, 0.5 mM DTT, 0.1 ug/uL BSA, 10 ng/uL salmon sperm DNA, ~2.5 ng/uL DNA; 30 min, temperature not …
T1 sequence: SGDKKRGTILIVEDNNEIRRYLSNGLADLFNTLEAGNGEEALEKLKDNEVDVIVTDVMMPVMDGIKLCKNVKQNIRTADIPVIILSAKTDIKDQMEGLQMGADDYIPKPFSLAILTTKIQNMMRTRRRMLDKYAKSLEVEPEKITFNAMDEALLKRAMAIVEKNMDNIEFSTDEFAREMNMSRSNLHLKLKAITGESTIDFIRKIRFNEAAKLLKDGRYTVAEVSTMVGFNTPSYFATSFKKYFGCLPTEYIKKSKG

[2] = target: T2, BT4663-RRAG C1174A;H1175G (Bacteroides thetaiotaomicron VPI 5482) (UniProt Q89YR8); test: EMSA; details: 50 mM Tris pH 7.6, 200 mM NaCl, 2.5% glycerol, 2 mM MgCl2, 0.5 mM DTT, 0.1 ug/uL BSA, 10 ng/uL salmon sperm DNA, ~2.5 ng/uL DNA; 30 min, temperature not …
T2 sequence: T1 sequence with D79G

GATGGTAGTGTGGGGTCTCATGCCTAGGATACAGGAGATAAACAGCTTTTTTAAACAAAAACAACATATGTCTCAACAAATTTGATATCAAAAAAATCATTTTTGAACAAAGTATGAACAACCTAAATTAAAGAATCTAATTAATGAGGTTACATTTGCAACAGTAAAATAACACTTTTAATAATTATAAAACCTAATAAAGTATGAAGAACGAGACCGAAATTCAATAAGGAGG (double strand) [bt4662 promoter fragment]
Kd [1]: 900 nM
Kd [2]: 900 nM
